Source: PMC6713507

Target: catalytic α subunit of the cAMP-dependent protein kinase A, Cushing's syndrome mutant L205R (PKA-C^L205R) (human)
Assay: ITC

Kd: 3.5 µM
Substance: VPS36-derived peptide (vacuolar protein-sorting–associated protein 36, residues 115 to 130)
